Source: article PMC7022404

Legend:
[1] = biological target: Humanized anti-HER2 monoclonal antibody trastuzumab (human); test: SPR
[2] = biological target: Linker-protein G (LPG) (Streptococcus sp.); test: QCM-D; LPG physisorbed on a silica-coated QCM-D crystal, trastuzumab injected, PBS washes between injections; 1 x PBS pH 7.4, room temperature; Kelvin-Voigt model for mass and thickness
[3] = biological target: Recombinant protein G (PG) from Streptococcus sp. (Streptococcus sp.) (UniProt P19909); test: QCM-D; PG covalently immobilised (APTES, glutaraldehyde) on a silica-coated QCM-D crystal, deactivated with Tris/ethanolamine, blocked with BSA; trastuzumab 1 ug/mL in 1 x PBS injected; Kelvin-Voigt model for mass and thickness

Substance	Half-Life t1/2 [1] [min]	Kd [1] [nM]	koff [1] [s⁻¹]	kon [1] [M⁻¹ s⁻¹]	Mass Deposited for Bound Antibody [2] [ng/cm^2]	Mass Deposited for Bound Antibody [3] [ng/cm^2]	Thickness of Bound Antibody [3] [nm]
Recombinant protein G (PG) from Streptococcus sp. (from UniProt P19909 34-562) (natural protein)	1.4	4.62	0.00824	1.79e+06			
Humanized anti-HER2 monoclonal antibody trastuzumab					1200	451	7.43
